Where two headings read alike, the source gives them in different places. One block for each binder: values may come before it.
What was measured:
[1] = molecular target: T1, human BACE1 (R&D Systems) (human, UniProt P56817); assay: SPR (Biacore)
T1 construct: recombinant, commercial (R&D Systems)
Description: Binding affinities of certain anti-BACE1 IgGs were measured by surface plasmon resonance (SRP) using a BIAcore™-T100 instrument. […] Association rates (kon) and dissociation rates (koff) were calculated using a simple one-to-one Langmuir binding model (BIAcore Evaluation Software version 3.2). The equilibrium dissociation constant (KD) was calculated as the ratio koff/kon.

human BACE1 ECD [2] = molecular target: T2, human BACE1 ECD; assay: Octet, pH 5.0;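 also: antibodies captured on anti-human capture sensor tips, dissociation monitored in PBS with BSA buffer, kinetics fitted with a one-to-one binding model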
T2 construct: analyte of the Octet assay (200 nM) and enzyme of the first short substrate assay; also called human BACE1 extracellular domain
T2 sequence (single chain, as listed by the source limits assumed): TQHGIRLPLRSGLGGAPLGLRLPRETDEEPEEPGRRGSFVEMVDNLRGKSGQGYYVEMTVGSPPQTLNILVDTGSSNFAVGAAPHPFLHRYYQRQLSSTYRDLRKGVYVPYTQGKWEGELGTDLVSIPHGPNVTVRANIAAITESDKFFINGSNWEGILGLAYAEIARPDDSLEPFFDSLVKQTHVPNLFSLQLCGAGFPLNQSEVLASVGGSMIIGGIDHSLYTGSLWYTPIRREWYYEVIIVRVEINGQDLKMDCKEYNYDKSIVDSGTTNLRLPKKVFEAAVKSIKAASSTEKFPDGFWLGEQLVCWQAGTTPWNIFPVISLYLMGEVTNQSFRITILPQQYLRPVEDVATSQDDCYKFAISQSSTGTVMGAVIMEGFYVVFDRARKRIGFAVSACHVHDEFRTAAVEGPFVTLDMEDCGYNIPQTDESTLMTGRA
Description: (§1) Anti-BACE1 antibodies were loaded onto anti-human capture (AHC) sensors (tips) followed by 60 seconds baseline in assay buffer. […] Tips were transferred to assay buffer for 5 minutes, 30 minutes, or 120 minutes depending on the off-rate, for off-rate measurement. Assay buffer was either PBS+0.1% BSA, pH 7.5; or PBS+0.1% BSA, pH 5.0. Kinetics were analyzed using a 1:1 binding model.

murine BACE1 ECD [3] = molecular target: T3, murine BACE1 ECD; assay: Octet, pH 5.0;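 also: antibodies captured on anti-human capture sensor tips, dissociation monitored in PBS with BSA buffer, kinetics fitted with a one-to-one binding model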
T3 construct: analyte of the Octet assay (200 nM) and enzyme of the first short substrate assay
T3 sequence (single chain, as listed by the source limits assumed): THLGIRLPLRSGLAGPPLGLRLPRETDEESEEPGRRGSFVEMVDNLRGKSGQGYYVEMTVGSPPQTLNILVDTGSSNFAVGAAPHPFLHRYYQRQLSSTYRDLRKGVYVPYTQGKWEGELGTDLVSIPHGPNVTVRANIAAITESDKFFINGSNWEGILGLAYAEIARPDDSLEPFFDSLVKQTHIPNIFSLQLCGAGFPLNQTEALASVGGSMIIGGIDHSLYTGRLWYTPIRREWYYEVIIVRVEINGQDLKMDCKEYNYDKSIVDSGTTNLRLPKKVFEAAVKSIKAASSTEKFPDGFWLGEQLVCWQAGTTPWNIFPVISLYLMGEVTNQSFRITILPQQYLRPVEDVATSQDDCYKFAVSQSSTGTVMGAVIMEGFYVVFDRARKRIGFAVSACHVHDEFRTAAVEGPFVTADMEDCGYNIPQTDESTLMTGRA
Description: as §1

human BACE1 ECD [4] = molecular target: T2, human BACE1 ECD; assay: Octet, pH 7.5;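 also: antibodies captured on anti-human capture sensor tips, dissociation monitored in PBS with BSA, Kd obtained from kinetic fit to a one-to-one binding model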
Description: as §1

murine BACE1 ECD [5] = molecular target: T3, murine BACE1 ECD; assay: Octet, pH 7.5;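 also: antibodies captured on anti-human capture sensor tips, dissociation monitored in PBS with BSA, Kd obtained from kinetic fit to a one-to-one binding model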
Description: as §1

[6] = molecular target: T4, BACE1 in primary mouse cortical neurons (mouse, UniProt P56818 46-501); assay: cell-based or functional assay
T4 sequence (P56818 46-501): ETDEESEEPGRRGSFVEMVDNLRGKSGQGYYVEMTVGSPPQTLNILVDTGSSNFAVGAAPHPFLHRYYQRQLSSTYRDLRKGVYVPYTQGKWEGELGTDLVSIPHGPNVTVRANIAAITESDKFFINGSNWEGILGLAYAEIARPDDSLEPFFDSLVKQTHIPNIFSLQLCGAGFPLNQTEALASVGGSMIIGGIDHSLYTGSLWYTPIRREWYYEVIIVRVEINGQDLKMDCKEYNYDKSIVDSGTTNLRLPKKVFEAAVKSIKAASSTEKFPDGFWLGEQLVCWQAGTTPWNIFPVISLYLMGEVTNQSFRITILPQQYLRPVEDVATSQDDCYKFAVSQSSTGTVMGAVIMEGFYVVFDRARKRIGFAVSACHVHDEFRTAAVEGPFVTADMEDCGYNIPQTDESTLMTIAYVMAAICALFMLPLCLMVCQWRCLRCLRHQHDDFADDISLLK

[7] = molecular target: T4, BACE1 in primary mouse cortical neurons; assay: cell-based or functional assay; remark: listed apart in the source
[8] = molecular target: T5, human TfR, full length, on cells (human, UniProt P02786 1-760); assay: FACS, 293 cells, 1 uM holo-Tf
T5 construct: also called human TfR transiently expressed in 293 cells; TfR on HEL cells
Description: (§2) Briefly, FACS analysis was performed using 293 cells transfected with full length human or cyno TfR using lipofectamin 2000 plus (Invitrogen) 48-72 h before FACS analysis. […] Cells were washed twice with FACS buffer, 50 μl of PE-Goat-anti-murine Fcγ (Jackson ImmunoResearch) was added to cells and they were incubated on ice for 30 min. Cells were washed with FACS buffer and resuspended in 100 μl FACS buffer for analysis.

[9] = molecular target: T6, human TfR extracellular domain with N-terminal His tag (human, UniProt P02786 89-760); assay: ELISA
T6 construct: Biotinylated in some assays; also called huTfR; HuTfR
Target sequence in this assay (P02786 89-760 G142S): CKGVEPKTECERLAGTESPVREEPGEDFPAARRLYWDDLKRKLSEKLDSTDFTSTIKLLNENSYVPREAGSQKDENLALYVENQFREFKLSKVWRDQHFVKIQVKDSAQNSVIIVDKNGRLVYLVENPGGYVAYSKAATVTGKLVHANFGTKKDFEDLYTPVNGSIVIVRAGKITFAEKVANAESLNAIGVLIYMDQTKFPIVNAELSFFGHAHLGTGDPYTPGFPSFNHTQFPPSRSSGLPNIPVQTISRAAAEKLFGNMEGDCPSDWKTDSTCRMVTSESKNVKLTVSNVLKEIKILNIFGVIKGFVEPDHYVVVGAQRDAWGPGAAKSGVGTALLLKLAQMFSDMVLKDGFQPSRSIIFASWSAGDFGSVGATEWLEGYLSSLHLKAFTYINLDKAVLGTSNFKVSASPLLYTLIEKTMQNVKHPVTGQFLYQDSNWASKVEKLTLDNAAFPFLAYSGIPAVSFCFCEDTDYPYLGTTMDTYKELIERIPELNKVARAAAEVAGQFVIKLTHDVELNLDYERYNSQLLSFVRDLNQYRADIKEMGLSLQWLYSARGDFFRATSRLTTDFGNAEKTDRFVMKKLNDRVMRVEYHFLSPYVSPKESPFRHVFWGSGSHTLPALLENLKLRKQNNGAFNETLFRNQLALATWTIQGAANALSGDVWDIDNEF

[10] = molecular target: T6, human TfR extracellular domain with …; assay: ELISA, IgG
Target sequence in this assay (P02786 89-760 G142S): as above

[11] = molecular target: T7, cyno TfR extracellular domain (analogous construct to human TfR ecd) (cynomolgus monkey, UniProt Q5RDH6 87-760 (Pongo abelii entry)); assay: ELISA, IgG
T7 construct: also called cynoTfR ecd
T7 chain: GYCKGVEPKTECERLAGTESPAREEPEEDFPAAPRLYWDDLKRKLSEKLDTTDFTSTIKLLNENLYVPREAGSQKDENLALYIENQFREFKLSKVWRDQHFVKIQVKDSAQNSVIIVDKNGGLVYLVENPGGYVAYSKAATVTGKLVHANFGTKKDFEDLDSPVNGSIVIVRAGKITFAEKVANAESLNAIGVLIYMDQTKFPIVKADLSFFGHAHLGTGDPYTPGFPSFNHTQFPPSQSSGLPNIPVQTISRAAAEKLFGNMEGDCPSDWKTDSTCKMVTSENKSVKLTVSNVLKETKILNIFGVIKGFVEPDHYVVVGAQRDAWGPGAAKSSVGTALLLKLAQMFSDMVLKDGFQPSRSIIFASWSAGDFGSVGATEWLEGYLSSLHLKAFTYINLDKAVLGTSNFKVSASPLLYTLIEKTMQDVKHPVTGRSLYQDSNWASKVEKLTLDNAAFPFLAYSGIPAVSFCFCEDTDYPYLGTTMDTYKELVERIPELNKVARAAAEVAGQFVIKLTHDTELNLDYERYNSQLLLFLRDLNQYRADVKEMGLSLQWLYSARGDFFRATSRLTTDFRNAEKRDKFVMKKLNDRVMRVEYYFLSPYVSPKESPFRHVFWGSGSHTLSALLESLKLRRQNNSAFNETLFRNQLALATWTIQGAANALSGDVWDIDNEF

[12] = molecular target: T6, human TfR extracellular domain with …; assay: SPR steady state, IgG
Target sequence in this assay (P02786 89-760 G142S): as the sequence (P02786 89-760 G142S) above
Description: (§3) Antibody affinities were measured using surface plasmon resonance (“SPR”) (Biacore™, GE Healthcare). Anti-His antibody (Qiagen) was coupled onto four different flow cells of a BIACORE™ CM5 sensor chip (Biacore, Inc., Piscataway, N.J.) at between 6000 and 8000 RU. Immobilization was achieved by random coupling through amino groups using a protocol provided by the manufacturer. 10×HBS-P (Biacore, Inc., Piscataway, N.J.) was diluted in water and served as the dilution and running buffer. Purified human or cyno TfR was captured, followed by a 3-fold dilution series of IgG or Fab that was injected at a flow rate of 30 ml/min using the single cycle kinetics method. Affinity constants were determined using a simple 1:1 Langmuir binding model or using a steady state model when kₒₙ or koff was beyond the detection limit. The equilibrium dissociation constant (KD) was calculated as the ratio of association rate constant (kₒₙ) and dissociation rate constant (koff).
(§4) These variants were screened as IgG by ELISA and SPR to identify positions important for binding to human and cyno TfR; the monovalent affinity of selected variants as Fab was also determined. […] Plates were washed with PBS/0.05% Tween 20 and blocked using Superblock blocking buffer in PBS (Thermo Scientific, Hudson, N.H.). Supernatants containing expressed IgG were diluted serially 1:5 and added to the plate for 1 h. […] Plates were washed with PBS/0.05% Tween 20 and 1:1000 diluted HRP-Goat-anti kappa (Southern Biotech) was added the plate and incubated for 1 h at room temperature. Plates were washed with PBS/0.05% Tween 20 and detected using TMB substrate (BioFX Laboratories, Owings Mills). Binding was also assessed by SPR, as described above.

[13] = molecular target: T7, cyno TfR extracellular domain …; assay: SPR steady state, IgG
Description: as §3, §4

[14] = molecular target: T6, human TfR extracellular domain with …; assay: SPR SCK 1:1 fit, IgG
Target sequence in this assay (P02786 89-760 G142S): as the sequence (P02786 89-760 G142S) above
Description: as §3, §4

[15] = molecular target: T7, cyno TfR extracellular domain …; assay: SPR SCK 1:1 fit, IgG
Description: as §3, §4

[16] = molecular target: T5, human TfR, full length, on cells; assay: FACS, 293 cells, 1 uM holo-Tf; remark: listed apart in the source
Description: as §2

[17] = molecular target: T6, human TfR extracellular domain with …; assay: SPR, Fab
Description: as §3, §4

[18] = molecular target: T7, cyno TfR extracellular domain …; assay: SPR, Fab
Description: as §3, §4

[19] = molecular target: T6, human TfR extracellular domain with …; assay: ELISA, IgG; remark: listed apart in the source
Target sequence in this assay (P02786 89-760 G142S): as the sequence (P02786 89-760 G142S) above
Description: (§5) Affinity variants were generated by making individual alanine substitutions in CDR-L3 or CDR-H3 using standard techniques. These variants were screened as IgG by ELISA and SPR to identify positions important for binding to human and cyno TfR; the monovalent affinity of selected variants as Fab was also determined. […] Plates were washed with PBS/0.05% Tween 20 and blocked using Superblock blocking buffer in PBS (Thermo Scientific, Hudson, N.H.). Supernatants containing expressed IgG were diluted serially 1:5 and added to the plate for 1 h. […] Plates were washed with PBS/0.05% Tween 20 and 1:1000 diluted HRP-Goat-anti kappa (Southern Biotech) was added the plate and incubated for 1 h at room temperature. Plates were washed with PBS/0.05% Tween 20 and detected using TMB substrate (BioFX Laboratories, Owings Mills).

[20] = molecular target: T7, cyno TfR extracellular domain …; assay: ELISA, IgG
Description: as §5

[21] = molecular target: T6, human TfR extracellular domain with …; assay: ELISA, immobilized huTfR, with and without 6.3 uM holo-Tf
Description: Plates were washed with PBS/0.05% Tween 20 and blocked using Superblock blocking buffer in PBS (Thermo Scientific, Hudson, N.H.). […] Plates were washed with PBS/0.05% Tween 20 and 1:1000 diluted HRP-Goat-anti human Fcγ (Jackson ImmunoResearch) was added to the plate and incubated for 1 h at room temperature. Plates were washed with PBS/0.05% Tween 20 and detected using TMB substrate (BioFX Laboratories, Owings Mills).

[22] = molecular target: T6, human TfR extracellular domain with …; assay: SPR SCK 1:1 fit, IgG; remark: listed apart in the source
Description: as §3, §4

[23] = molecular target: T7, cyno TfR extracellular domain …; assay: SPR SCK 1:1 fit, IgG
Description: as §3, §4

[24] = molecular target: T6, human TfR extracellular domain with …; assay: SPR, IgG;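 also: His-tagged TfR captured via immobilized anti-His antibody on a CM5 chip, antibody injected in 3-fold dilution series by single cycle kinetics, 1:1 Langmuir or steady-state fit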
Target sequence in this assay (P02786 89-760 G142S): as the sequence (P02786 89-760 G142S) above
Description: as §3
(§6) In both cases, the SPR experiments were performed as described above.

[25] = molecular target: T7, cyno TfR extracellular domain …; assay: SPR, IgG;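 also: His-tagged TfR captured via immobilized anti-His antibody on a CM5 chip, antibody injected in 3-fold dilution series by single cycle kinetics, 1:1 Langmuir or steady-state fit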
Description: as §3, §6

T1 sequence (P56817 22-457 limits assumed): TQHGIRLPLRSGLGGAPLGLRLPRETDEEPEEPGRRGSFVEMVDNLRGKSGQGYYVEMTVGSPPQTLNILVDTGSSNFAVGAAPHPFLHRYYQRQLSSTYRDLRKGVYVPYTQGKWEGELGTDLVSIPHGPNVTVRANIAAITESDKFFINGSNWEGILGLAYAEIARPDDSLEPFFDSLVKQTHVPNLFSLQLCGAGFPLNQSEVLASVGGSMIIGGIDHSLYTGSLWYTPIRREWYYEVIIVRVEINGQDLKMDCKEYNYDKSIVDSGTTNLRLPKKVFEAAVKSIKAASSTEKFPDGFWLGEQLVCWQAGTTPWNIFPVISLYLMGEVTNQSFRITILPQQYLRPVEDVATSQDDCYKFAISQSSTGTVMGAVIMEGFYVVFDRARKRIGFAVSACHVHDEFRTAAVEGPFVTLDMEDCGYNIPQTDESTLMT

Kd [1]: 1.12 nM
Kd (human BACE1 ECD [2]): < 0.24 nM
Kd (murine BACE1 ECD [3]): 0.32 nM
Kd (human BACE1 ECD [4]): < 0.3 nM
Kd (murine BACE1 ECD [5]): < 0.31 nM
IC50, inhibition of Abeta x-40 production in primary mouse cortical neurons [6]: 1.7 nM
IC50, Abeta x-40 in mouse cortical neurons [7]: 1.66 nM
maximal % inhibition of Abeta x-40 [7]: 87%
B1: anti-BACE1 antibody 6266 (antibody, V domains shown)
VH: EVQLVQSGAEVKKPGSSVKVSCKASGGTLSGYGVSWVRQAPGQGLEWMGNIIPGFGTANYAQKFQGRVTITADESTSTAYMELSSLRSEDTAVYYCARSGGTKYGMLDVWGQGTMVTVSS
VL: EIVMTQSPATLSVSPGERATLSCRASQSVSSNLAWYQQKPGQAPRLLIYGASTRATGIPARFSGSGSGTEFTLTISSLQSEDFAVYYCQQLILWPPRTFGGGTKVEIK
notes: Fully human antibody

IC50, inhibition of Abeta x-40 production in primary mouse cortical neurons [6]: 1.7 nM
B2: bispecific antibody TfR^2/6266 (bispecific antibody, V domains shown)
VH 1: EVQLVQSGAEVKKPGASVKVSCKASGYTFTSYWMHWVRQAPGQRLEWIGEINPTNGRTNYIEKFKSRATLTVDKSASTAYMELSSLRSEDTAVYYCARGTRAYHYWGQGTMVTVSS
VL 1: DIQMTQSPSSLSASVGDRVTITCRASDNLYSNLAWYQQKPGKSPKLLVYDATNLADGVPSRFSGSGSGTDYTLTISSLQPEDFATYYCQHFAGTPLTFGQGTKVEIK
VH 2: EVQLVQSGAEVKKPGSSVKVSCKASGGTLSGYGVSWVRQAPGQGLEWMGNIIPGFGTANYAQKFQGRVTITADESTSTAYMELSSLRSEDTAVYYCARSGGTKYGMLDVWGQGTMVTVSS
VL 2: EIVMTQSPATLSVSPGERATLSCRASQSVSSNLAWYQQKPGQAPRLLIYGASTRATGIPARFSGSGSGTEFTLTISSLQSEDFAVYYCQQLILWPPRTFGGGTKVEIK

binding result [8]: binds
binding result [9]: binds
B3: 4C2 (antibody, V domains shown)
VH: QVQLQQPGSELVRPGASVKLSCKASGYTFTSYWMHWVKQRHGQGLEWIGNIYPGSGSTKYDEKFKSKGTLTVDTSSSTAYMHLSSLTSEDSAVYYCTRGGYDSRAWFAHWGQGTLVTVSA
VL: DIVLTQSPASLAVSLGQRATISCRARQSVSTSSYSFMHWYQQKPGQPPKLLIKYASIQESGVPARFSGSGSGTDFTLNILPVEEEDTATYYCQHTWEIPFTFGSGTNLEIK
notes: Mouse hybridoma antibody; also called clone 4C2

binding result [8]: binds
binding result [9]: binds
B4: 15D2 (antibody, V domains shown)
VH: QVQLQQSGPELVRPGVSVKISCKGSGYTVTDYAMHWVKQSHAKSLEWIGVISFYSGKTNYNQKFMGKATMTVDKSSSTAYMELARLTSEDSAIYYCARGLSGNYVMDYWGQGTSVTVSS
VL: DIVLTQSPASLAVSLGQRATISCRASESVDSYGNSFMHWYQQKPGQPPKLLIYRASNLESGIPARFSGSGSRTDFTLTINPVEADDVATYYCQQSNEGPPTFGGGTKLEIK
notes: Mouse hybridoma antibody; also called clone 15D2

EC50 [10]: 0.0106 mg/L
EC50 [11]: 0.0406 mg/L
Kd [12]: 94 nM
Kd [13]: 258 nM
Kd [14]: 29 nM
Kd [15]: 57 nM
B5: P95A (antibody, V domains shown)
VH: EVQLVQSGAEVKKPGASVKVSCKASGYTFTSYWMHWVRQAPGQRLEWIGEINPTNGRTNYIEKFKSRATLTVDKSASTAYMELSSLRSEDTAVYYCARGTRAYHYWGQGTMVTVSS
VL: DIQMTQSPSSLSASVGDRVTITCRASDNLYSNLAWYQQKPGKSPKLLVYDATNLADGVPSRFSGSGSGTDYTLTISSLQPEDFATYYCQHFWGTALTFGQGTKVEIK
notes: also called 15G11.v5 P95A (CDR-L3) IgG

EC50 [10]: 0.03 mg/L
EC50 [11]: 0.506 mg/L
Kd [12]: 212 nM
Kd [13]: 591 nM
Kd [14]: 125 nM
Kd [15]: 268 nM
B6: Q89A (antibody, V domains shown)
VH: EVQLVQSGAEVKKPGASVKVSCKASGYTFTSYWMHWVRQAPGQRLEWIGEINPTNGRTNYIEKFKSRATLTVDKSASTAYMELSSLRSEDTAVYYCARGTRAYHYWGQGTMVTVSS
VL: DIQMTQSPSSLSASVGDRVTITCRASDNLYSNLAWYQQKPGKSPKLLVYDATNLADGVPSRFSGSGSGTDYTLTISSLQPEDFATYYCAHFWGTPLTFGQGTKVEIK
notes: also called 15G11.v5 Q89A (CDR-L3) IgG

binding result [16]: binds
binding result [9]: binds
B7: 13C3 (antibody, V domains shown)
VH: QVQLQQPGAELVKPGASVKLSCKASGYTFASYWMHWVKQRPGQGLEWIGEINPINGRTNYSEKFKKKATLTVDKSSSTAYMQLSSLTSEDSAVYYCARGTRAYHYWGQGTSVTVSS
VL: DIQMTQSPASLSVSVGETVTITCRASDNIYSNLAWYQQKQGKSPQLLVYAATNLADGVPSRFSGSGSGTQYSLKINSLQSEDFGSYYCQHFWGTPLMFGSGTKLELK
notes: Mouse hybridoma antibody; also called clone 13C3

binding result [16]: binds
binding result [9]: binds
B8: 16G5 (antibody, V domains shown)
VH: QVQLQQPGAELVRPGAAVKLSCKASGYTFTSYWMHWVKQRPGQGLEWIGEINPTNGRTNYNENFKSKATLTVDKSSSTAYMQLSSLTSEDSAVYYCARGTRAYHFWGQGTSVTVSS
VL: DIQLTQTPASLSVSVGETVTITCRASENIYSNLAWYQQKQGKSPQLLVYAATDLADGVPSRFRGSGSGTQYSLKINSLQSEDFGSYYCQHFWGTPLTFGAGTKLELI
notes: Mouse hybridoma antibody; also called clone 16G5

Kd [17]: 130 nM
Kd [18]: 760 nM
B9: Q90A (Fab, V domains shown)
VH: EVQLVQSGAEVKKPGASVKVSCKGSGYTFTDYAMHWVRQAPGQGLEWMGGISTYFGRTNYNQKFKGRVTMTVDTSISTAYMELSRLRSDDTAVYYCARGLSGNYVMDYWGQGTTVTVSS
VL: DIVMTQSPDSLAVSLGERATINCRASESVDSYGNSFMHWYQQKPGQPPKLLIYRASNLESGVPDRFSGSGSRTDFTLTISSLQAEDVAVYYCQASNEAPPTFGQGTKLEIK
notes: also called 7A4.v15 Q90A (CDR-L3) Fab

EC50 [19]: 0.0148 mg/L
EC50 [20]: 0.0142 mg/L
EC50 (read off the curve) [21]: ~0.005 mg/L
Kd [22]: 0.58 nM
Kd [23]: 7.8 nM
Kd [24]: 0.561 nM
Kd [25]: 7.8 nM
B10: hu7A4.v15 IgG (antibody, V domains shown)
VH: EVQLVQSGAEVKKPGASVKVSCKGSGYTFTDYAMHWVRQAPGQGLEWMGGISTYFGRTNYNQKFKGRVTMTVDTSISTAYMELSRLRSDDTAVYYCARGLSGNYVMDYWGQGTTVTVSS
VL: DIVMTQSPDSLAVSLGERATINCRASESVDSYGNSFMHWYQQKPGQPPKLLIYRASNLESGVPDRFSGSGSRTDFTLTISSLQAEDVAVYYCQQSNEAPPTFGQGTKLEIK
notes: Human IgG; also called humanized 7A4.v15
